This series concerns the target T1, ARF5 DNA-binding domain (ARF5-DBD) (UniProt P93024 120-274).
T1 sequence: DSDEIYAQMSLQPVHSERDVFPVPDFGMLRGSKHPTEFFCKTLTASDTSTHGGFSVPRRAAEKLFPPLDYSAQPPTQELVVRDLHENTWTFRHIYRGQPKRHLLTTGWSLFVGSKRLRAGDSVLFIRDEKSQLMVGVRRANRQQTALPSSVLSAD
Kind of series: EMSA; EMSA: 12.5 pmol ARF5-DBD (doubled in competition), 200 fmol Cy5 probe, 10 mM Tris-HCl pH 7.4, 75 mM NaCl, 50 ng/ul poly(dI-dC), 1 mM DTT, 20 min room temperature; 6% native gel, 0.5x TBE. The following applies: protein: recombinant; tags: 6xHis-MBP removed by TEV protease; label: 5' Cy5 (both strands); blunt.

The text below walks through data of publication PMC5830446, “Spatial specificity of auxin responses coordinates wood formation”.

B1: WOX4b (dsDNA)
DNA 1: AATCTGTCATTACCGACATAGT
DNA 2: ACTATGTCGGTAATGACAGATT
With B1, the binding result is “no binding”.

B2: WOX4a (dsDNA)
DNA 1: GCTCCATGCAGACATGAACATA
DNA 2: TATGTTCATGTCTGCATGGAGC
Regarding B2, the binding result is on record as “binds”.
